Where two headings read alike, the source gives them in different places.

This is an account of results in patent US20110280873A1.

Holding throughout (experiment): cell-based or functional assay
Test [1] addresses CCR2 (the MCP1 receptor) on THP-1 human monocytic cells (human) (UniProt P41597).
The target is the same in test [2]. The source holds these as a separate data set.
For test [3] the target is unchanged. This is another data set of the same source.
For test [4] the target is unchanged. The source holds these as a separate data set.

UniProt P41597, sequence (P41597 whole entry): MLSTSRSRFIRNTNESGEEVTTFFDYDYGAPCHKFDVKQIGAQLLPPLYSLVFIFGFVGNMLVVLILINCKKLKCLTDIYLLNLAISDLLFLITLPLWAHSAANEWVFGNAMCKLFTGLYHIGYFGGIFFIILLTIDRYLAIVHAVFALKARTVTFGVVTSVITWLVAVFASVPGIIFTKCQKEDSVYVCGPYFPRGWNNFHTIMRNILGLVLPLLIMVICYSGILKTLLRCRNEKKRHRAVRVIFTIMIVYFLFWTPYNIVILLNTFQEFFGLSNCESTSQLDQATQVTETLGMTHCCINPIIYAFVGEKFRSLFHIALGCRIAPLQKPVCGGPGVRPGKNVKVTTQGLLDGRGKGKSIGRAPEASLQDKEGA

In the case of “GSD (human MCP-1, glycine-serine dipeptide, wild-type human IgG1 Fc) (from UniProt P13500 24-99; P01857 99-330) (Fc fusion)”, in test [1], the relative % of THP-1 cell migration, agonist assay, 0.03 nM came out at 22.8%; the relative % of THP-1 cell migration, agonist assay, 0.1 nM was found to be 34.5%; the relative % of THP-1 cell migration, agonist assay, 0.3 nM was 41.9%; the relative % of THP-1 cell migration, agonist assay, 1 nM stood at 58.9%. In test [1], this substance returned a relative % of THP-1 cell migration, agonist assay, 3 nM of 53%; a relative % of THP-1 cell migration, agonist assay, 10 nM of 34.3%; a relative % of THP-1 cell migration, agonist assay, 30 nM of 23.1%. Also, the EC50, agonist THP-1 cell migration in test [2] was in the range of 30 to 300 pM.
“LPD1421 (MCP1-Ig fusion: mature human MCP1, linker GGEPKSS of SEQ ID NO: 12, human IgG1 variant hinge-CH3 with D265A) (Fc fusion)”: in test [3], the relative % of THP-1 cell migration, agonist assay, 0.01 nM turned out to be 27.9%; the relative % of THP-1 cell migration, agonist assay, 0.03 nM turned out to be 63.8%; the relative % of THP-1 cell migration, agonist assay, 0.1 nM was found to be 104%; the relative % of THP-1 cell migration, agonist assay, 0.3 nM worked out at 86.2%. In test [3], the relative % of THP-1 cell migration, agonist assay, 1 nM was found to be 59.5%; the relative % of THP-1 cell migration, agonist assay, 3 nM amounted to 33.1%; the relative % of THP-1 cell migration, agonist assay, 10 nM came out at 26.4%. In test [4], this substance registered a relative % of THP-1 cell migration, antagonist assay, rhMCP-1 0 nM, LPD1421 0.01 nM of 11.8%; a relative % of THP-1 cell migration, antagonist assay, rhMCP-1 0 nM, LPD1421 0.1 nM of 9.55%; a relative % of THP-1 cell migration, antagonist assay, rhMCP-1 0 nM, LPD1421 1 nM of 12.6%; a relative % of THP-1 cell migration, antagonist assay, rhMCP-1 0.01 nM, LPD1421 0.01 nM of 10.6%. Further, in test [4], the relative % of THP-1 cell migration, antagonist assay, rhMCP-1 0.01 nM, LPD1421 0.1 nM was determined as 9.42%; the relative % of THP-1 cell migration, antagonist assay, rhMCP-1 0.01 nM, LPD1421 1 nM was found to be 8.35%; the relative % of THP-1 cell migration, antagonist assay, rhMCP-1 0.03 nM, LPD1421 0.01 nM was 12.7%; the relative % of THP-1 cell migration, antagonist assay, rhMCP-1 0.03 nM, LPD1421 0.1 nM is 10.3%. In test [4], this substance returned a relative % of THP-1 cell migration, antagonist assay, rhMCP-1 0.03 nM, LPD1421 1 nM of 10.7%; a relative % of THP-1 cell migration, antagonist assay, rhMCP-1 0.1 nM, LPD1421 0.01 nM of 24.3%; a relative % of THP-1 cell migration, antagonist assay, rhMCP-1 0.1 nM, LPD1421 0.1 nM of 12.1%; a relative % of THP-1 cell migration, antagonist assay, rhMCP-1 0.1 nM, LPD1421 1 nM of 7.25%. In addition, in test [4], the relative % of THP-1 cell migration, antagonist assay, rhMCP-1 0.3 nM, LPD1421 0.01 nM was found to be 41.7%; the relative % of THP-1 cell migration, antagonist assay, rhMCP-1 0.3 nM, LPD1421 0.1 nM came out at 15.9%; the relative % of THP-1 cell migration, antagonist assay, rhMCP-1 0.3 nM, LPD1421 1 nM is 13.5%; the relative % of THP-1 cell migration, antagonist assay, rhMCP-1 1 nM, LPD1421 0.01 nM was determined as 61.2%. Also, in test [4], the relative % of THP-1 cell migration, antagonist assay, rhMCP-1 1 nM, LPD1421 0.1 nM was 33.7%; the relative % of THP-1 cell migration, antagonist assay, rhMCP-1 1 nM, LPD1421 1 nM was found to be 9.44%; the relative % of THP-1 cell migration, antagonist assay, rhMCP-1 3 nM, LPD1421 0.01 nM turned out to be 44%; the relative % of THP-1 cell migration, antagonist assay, rhMCP-1 3 nM, LPD1421 0.1 nM stood at 39.2%. Further, in test [4], the relative % of THP-1 cell migration, antagonist assay, rhMCP-1 3 nM, LPD1421 1 nM turned out to be 9.57%; the relative % of THP-1 cell migration, antagonist assay, rhMCP-1 10 nM, LPD1421 0.01 nM is 39.2%; the relative % of THP-1 cell migration, antagonist assay, rhMCP-1 10 nM, LPD1421 0.1 nM came to 37.9%; the relative % of THP-1 cell migration, antagonist assay, rhMCP-1 10 nM, LPD1421 1 nM was 16.1%. Further, in test [2], the EC50, agonist THP-1 cell migration turned out to be 30 pM; the IC50, antagonist assay of THP-1 cell migration toward rhMCP-1 is 10 to 100 pM; the potency in agonist cell migration relative to rhMCP-1 was determined as 3 fold.
With “NGSD (human MCP-1 joined at its carboxy-terminus directly to wild-type human IgG1 Fc) (from UniProt P13500 24-99; P01857 99-330) (Fc fusion)”, in test [2], the EC50, agonist THP-1 cell migration fell in the range of 30 to 300 pM; the relative % of THP-1 cell migration, agonist assay, 0.03 nM was determined as 17.7%; the relative % of THP-1 cell migration, agonist assay, 0.1 nM came out at 34.3%; the relative % of THP-1 cell migration, agonist assay, 0.3 nM is 35.5%. For the same substance, in test [2], the relative % of THP-1 cell migration, agonist assay, 1 nM came out at 36.5%; the relative % of THP-1 cell migration, agonist assay, 3 nM came out at 26.7%; the relative % of THP-1 cell migration, agonist assay, 10 nM was 17.5%; the relative % of THP-1 cell migration, agonist assay, 30 nM is 20.1%.
In test [1], “recombinant human MCP-1 (rhMCP-1) (R & D Systems) (from UniProt P13500 24-99) (ligand)” gave a relative % of THP-1 cell migration, agonist assay, 0.03 nM of 28.6%; a relative % of THP-1 cell migration, agonist assay, 0.1 nM of 52.2%; a relative % of THP-1 cell migration, agonist assay, 0.3 nM of 76%; a relative % of THP-1 cell migration, agonist assay, 3 nM of 78.1%. In test [1], this substance registered a relative % of THP-1 cell migration, agonist assay, 10 nM of 47.5% and a relative % of THP-1 cell migration, agonist assay, 30 nM of 25.3%. In addition, in test [3], the relative % of THP-1 cell migration, agonist assay, 0.01 nM amounted to 29.2%; the relative % of THP-1 cell migration, agonist assay, 0.03 nM was found to be 28.7%; the relative % of THP-1 cell migration, agonist assay, 0.1 nM was 59.4%; the relative % of THP-1 cell migration, agonist assay, 0.3 nM was determined as 87.3%. In test [3], the relative % of THP-1 cell migration, agonist assay, 3 nM worked out at 78.4% and the relative % of THP-1 cell migration, agonist assay, 10 nM came out at 48.4%. In test [4], this substance showed a relative % of THP-1 cell migration toward rhMCP-1 0.01 nM, medium only of 16.2%; a relative % of THP-1 cell migration toward rhMCP-1 0.03 nM, medium only of 24.2%; a relative % of THP-1 cell migration toward rhMCP-1 0.1 nM, medium only of 34.8%; a relative % of THP-1 cell migration toward rhMCP-1 0.3 nM, medium only of 60.7%. Besides, in test [4], the relative % of THP-1 cell migration toward rhMCP-1 3 nM, medium only was found to be 82.1% and the relative % of THP-1 cell migration toward rhMCP-1 10 nM, medium only is 59.8%. Also, in test [2], the EC50, agonist THP-1 cell migration turned out to be 100 pM; the relative % of THP-1 cell migration toward rhMCP-1 0.01 nM, medium only worked out at 6.44%; the relative % of THP-1 cell migration toward rhMCP-1 0.03 nM, medium only stood at 15%; the relative % of THP-1 cell migration toward rhMCP-1 0.1 nM, medium only was 32%. In test [2], this substance had a relative % of THP-1 cell migration toward rhMCP-1 0.3 nM, medium only of 67.5%; a relative % of THP-1 cell migration toward rhMCP-1 1 nM, medium only of 100%; a relative % of THP-1 cell migration toward rhMCP-1 3 nM, medium only of 97%; a relative % of THP-1 cell migration toward rhMCP-1 10 nM, medium only of 75.5%. In test [2], the relative % of THP-1 cell migration, agonist assay, 0.03 nM worked out at 26.5%; the relative % of THP-1 cell migration, agonist assay, 0.1 nM was determined as 46.4%; the relative % of THP-1 cell migration, agonist assay, 0.3 nM stood at 80.2%; the relative % of THP-1 cell migration, agonist assay, 1 nM is 100%. Moreover, in test [2], the relative % of THP-1 cell migration, agonist assay, 3 nM came to 70.3%; the relative % of THP-1 cell migration, agonist assay, 10 nM amounted to 32.8%; the relative % of THP-1 cell migration, agonist assay, 30 nM worked out at 26.4%.
